# According to US8067376B2, “Pharmaceutical compositions for transdermal delivery” (Forhumantech Co., Ltd., priority 2004, dated 2011):
# “Also recorded” adds a separate entry of the source. Ends that are not written are not given here.
# Columns and labels:
# HeCaT cell line = assay: Cell proliferation-inhibitory effect by WST-1 assay; type: cell-based; conditions: 0.2, 1.5, 4.4, 13.3 and 40 μM, after 2 days
# From the text: In this Example, the cell proliferation-inhibitory effect of PTD-MTX was observed by WST-1 assay (Roche Biochemical) in vitro.
# To analyze the cell proliferation-inhibitory effect of PTD-MTX, a HeCaT cell line (obtained from the Department of Dermatology, College of Medicine, Chungnam National University, Korea) was used to analyze cell death. For this purpose, […] were inoculated into DMEM medium (10% FCS, antibiotics (GIBCO)) on a 96-well plate and cultured overnight. To the culture medium, MTX alone, PTD-MTX and PTD-ACA-MTX conjugates prepared in Example 1 were added with concentrations of 0.2, 1.5, 4.4, 13.3 and 40 μM respectively. After 2 days, the inhibition of proliferation of the cells was analyzed by the WST-1 assay.
# In the WST-1 assay, tetrazolium salt is present in the respiratory chain of mitochondria and cleaved into a formazan dye by succinate-tetrazolium-reductase having activity only for viable cells, and if the number of viable cells increases, the entire activity of mitochondria dehydrogenase in a sample will increase. Since this increase in enzymatic activity induces an increase in the production of formazan dye, the formazan dye will show a linear correlation with the number of metabolically active cells in medium. The absorbance of the dye solution was measured with an ELISA reader to quantify the formazan dye produced by the metabolically active cells so as to observe cell proliferation ability and cell viability.
# DBA/1J mice = assay: Arthritis animal model (rheumatoid arthritis induced by II-type collagen); type: in vivo, mouse
# Description: For in vivo verification of the pharmacological effects of the PTD-ACA-MTX conjugate, DBA/1J mice (obtained from Samtako) were injected with e II-type collagen (obtained from Sigma) to induce rheumatoid arthritis. The mice were divided into a group for intraperitoneal (I.P.) injection of the PTD-ACA-MTX conjugate prepared in Example 1, a group for transdermal administration of the PTD-ACA-MTX conjugate prepared in Example 1, and a group for intraperitoneal (I.P.) injection of MTX alone. For the groups for intraperitoneal (I.P.) injection, MTX was injected in a dosage of 0.3 mg/kg for 4 weeks, and for the group for transdermal administration, a cream-type composition consisting of 5 wt %, based on the weight of the composition, of ethanol, 15 wt % of liquid paraffin, 40 wt % of Vaseline, 0.1 wt % of the PTD-ACA-MTX conjugate, 10 wt % of glycerin and 30 wt % of polyethylene glycol was prepared and then applied on rheumatoid arthritis-induced sites four times weekly. After treatment with the drugs, the arthritis index was monitored one time each week, and after 4 weeks, the animals were sacrificed and the IL-4, IL-6, TNF-α and arthritis factor levels in the blood were measured (see FIGS. 7, 8 and 9; results obtained using PTD of SEQ ID NO: 2 are not shown in the drawings). In FIGS. 7, 8 and 9, N: normal mice; CT: mice having rheumatoid arthritis induced by injection of collagen; M1: the group injected intraperitoneally with MTX alone; M2: the group injected intraperitoneally with PTD-ACA-MTX; and M3: the group for which the ointment preparation containing the PTD-ACA-MTX conjugate was administered transdermally.
# Sprague Dawley rats = assay: Toxicity test by single subcutaneous administration to rats; type: in vivo, rat
# Description: Toxicity by the single subcutaneous administration of PTD-ACA-MTX prepared in Example 1 was examined. Male and female Sprague Dawley rats (Samtako) were divided into an excipient control group administered with sterilized water for injection, and test groups administered with the inventive conjugate in amounts of 5, 50 and 500 mg/kg. Each of the animal groups consisted of 10 animals (five males and five females) and observed for mortality for 2 weeks, general symptoms, bodyweight change, and autopsy findings. All the test methods were performed according to toxicity test standards provided by the Korea Food and Drug Administration, and the test results are as follows.
# beagle dogs = assay: Toxicity test by single subcutaneous administration to beagle dogs; type: in vivo, dog
# Description: Toxicity caused by single subcutaneous administration of the inventive conjugate was examined. Male and female beagle dogs were administered subcutaneously with the inventive conjugate in each of amounts of 4, 20 and 100 mg/kg. Each of the animal groups consisted of four animals (2 males and 2 females) and observed for mortality for 2 weeks, general symptoms, bodyweight change, and autopsy findings. All the test methods were performed according to toxicity test standards provided by the Korea Food and Drug Administration, and the test results are as follows.
# [1] = test system: New Zealand White rabbits; assay: Skin irritation test in rabbits; type: in vivo, rabbit; conditions: healthy and scratch skin
# Description: The skin irritability of the inventive conjugate was examined. The inventive conjugate was applied to the healthy skin and scratch skin of New Zealand White rabbits, which were then evaluated comparatively with the healthy skin and scratch skin to which the inventive conjugate had not been applied.
# [2] = Prior enzyme test of PTD-MTX conjugate versus MTX alone; type: biochemical; conditions: prior enzyme test results
# [3] = 500 mg/kg, male and female animals
compound,measurement,setting,value
"CN(Cc1cnc2nc(N)nc(N)c2n1)c1ccc(C(=O)N[C@@H](CCC(=O)O)C(=O)O)cc1 [MTX alone, methotrexate, reference compound]",cell proliferation-inhibitory effect (rank order),HeCaT cell line,followed by the MTX-PTD conjugate and the MTX alone in that order; also recorded: MTX alone <PTD-MTX<PTD-ACA-MTX
"PTD-ACA-MTX (YARVRRRGPRR; also: aminocaproic acid linker, methotrexate conjugate, position not given here)",cell proliferation-inhibitory effect (rank order),HeCaT cell line,MTX alone <PTD-MTX<PTD-ACA-MTX
same,cell proliferation-inhibitory effect (rank order),HeCaT cell line; listed as MTX-ACA-PTD conjugate,highest inhibitory effect
same,inflammatory cells which have penetrated inflammatory sites (tissue photographs),"DBA/1J mice; after treatment, H&E and M-T staining",greatly decreased
same,amount of inflammation-mediating cytokine TNF-α,"DBA/1J mice; blood, after 4 weeks of treatment",greatly decreased
same,pharmacological effect in arthritis animal model,"DBA/1J mice; group M3, transdermal ointment, compared with M2 (I.P. MTX-ACA-PTD) and M1 (I.P. MTX alone)",substantially the same effect
same,autopsy findings,"Sprague Dawley rats; 500 mg/kg, female animals",splenomegaly was observed
same,autopsy findings at the administration site,Sprague Dawley rats; [3],red fluid retention and incrustation
same,general symptoms,Sprague Dawley rats; [3],congestion was observed starting from one day after the administration; also recorded: incrustation was observed starting from 2 days after the administration
same,general symptoms,"Sprague Dawley rats; 500 mg/kg, male animals",systemic edema was observed
same,bodyweight change,"Sprague Dawley rats; 500 mg/kg, male animals, 3, 7 and 14 days after administration",inhibition of an increase in bodyweight
same,mortality (animals killed by the test substance),"Sprague Dawley rats; 5, 50 and 500 mg/kg single s.c., 2 weeks",not observed
same,general symptoms,"Sprague Dawley rats; 4 days to 6 days after administration, group not clearly stated (500 mg/kg context)",Diarrhea and soft feces were sporadically observed
same,minimum lethal dose (MLD),"Sprague Dawley rats; single subcutaneous administration, rats",more than 500 mg/kg
same,bodyweight change,"beagle dogs; 100 mg/kg, male and female animals, 3 days after administration",temporary inhibition of an increase in bodyweight
same,general symptoms,"beagle dogs; 100 mg/kg, males, anorexia 2 to 4 days, diarrhea 3 days after administration, listed as inventive conjugate",anorexia was observed; also recorded: diarrhea was observed
same,general symptoms,"beagle dogs; 100 mg/kg, one male and female, starting from 1 hour after administration",reduction in spontaneous motility was observed
same,autopsy findings,"beagle dogs; 4, 20 and 100 mg/kg single s.c.",abnormal findings were not observed
same,mortality (animals killed by the test substance),"beagle dogs; 4, 20 and 100 mg/kg single s.c., 2 weeks",No animal killed by the test substance was observed
same,general symptoms,"beagle dogs; groups with more than 20 mg/kg, males and females, 1 hour to 6 hours after administration",eyelid edema was observed
same,general symptoms,beagle dogs; one male of 20 mg/kg group and one female of 100 mg/kg group,edema and a reduction in spontaneous motility were continued up to 2 days after administration
same,minimum lethal dose,"beagle dogs; single subcutaneous administration, beagle dogs, both males and females",over 100 mg/kg
same,skin irritability classification,[1],non-irritating substance
same,skin irritation index,[1],zero
PTD-MTX (YARVRRRGPRR-NH2; not fully specified (N-terminus); also: methotrexate conjugate),cell proliferation-inhibitory effect (rank order),HeCaT cell line,MTX alone <PTD-MTX<PTD-ACA-MTX
same,effect in enzyme test compared to MTX alone,[2],low effects compared to MTX alone
